Experimental data taken from patent US20130266576A1 (Novo Nordisk, published 2013).
Substitutions are numbered along the chain they refer to. Blank lines part the entries; values can stand above or below the binder they belong to.

How the values were obtained:
[1] = biological target: T1, B-domain deleted factor VIII (FVIII) (human, UniProt P00451 20-759; P00451 1668-2351); test: cell-based or functional assay
T1 sequence 1: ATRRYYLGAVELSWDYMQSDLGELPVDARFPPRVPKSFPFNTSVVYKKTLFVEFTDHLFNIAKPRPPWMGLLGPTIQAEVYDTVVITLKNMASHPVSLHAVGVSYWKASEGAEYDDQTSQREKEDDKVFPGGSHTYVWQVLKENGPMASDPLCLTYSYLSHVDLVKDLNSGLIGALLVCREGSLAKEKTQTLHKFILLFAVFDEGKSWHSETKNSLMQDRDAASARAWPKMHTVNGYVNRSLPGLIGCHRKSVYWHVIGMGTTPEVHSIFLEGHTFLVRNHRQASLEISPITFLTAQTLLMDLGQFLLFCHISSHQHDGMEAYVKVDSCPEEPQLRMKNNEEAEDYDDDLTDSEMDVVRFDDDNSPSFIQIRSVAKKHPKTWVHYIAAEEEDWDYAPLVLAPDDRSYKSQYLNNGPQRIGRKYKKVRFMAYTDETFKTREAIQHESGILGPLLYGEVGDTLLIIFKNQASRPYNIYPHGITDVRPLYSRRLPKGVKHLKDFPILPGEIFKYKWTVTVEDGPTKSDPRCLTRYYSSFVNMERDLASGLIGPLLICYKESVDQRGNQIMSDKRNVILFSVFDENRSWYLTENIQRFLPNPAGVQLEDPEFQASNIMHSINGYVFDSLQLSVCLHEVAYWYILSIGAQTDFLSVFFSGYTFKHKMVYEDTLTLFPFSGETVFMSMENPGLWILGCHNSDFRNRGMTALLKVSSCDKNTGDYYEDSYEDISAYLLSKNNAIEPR
T1 sequence 2: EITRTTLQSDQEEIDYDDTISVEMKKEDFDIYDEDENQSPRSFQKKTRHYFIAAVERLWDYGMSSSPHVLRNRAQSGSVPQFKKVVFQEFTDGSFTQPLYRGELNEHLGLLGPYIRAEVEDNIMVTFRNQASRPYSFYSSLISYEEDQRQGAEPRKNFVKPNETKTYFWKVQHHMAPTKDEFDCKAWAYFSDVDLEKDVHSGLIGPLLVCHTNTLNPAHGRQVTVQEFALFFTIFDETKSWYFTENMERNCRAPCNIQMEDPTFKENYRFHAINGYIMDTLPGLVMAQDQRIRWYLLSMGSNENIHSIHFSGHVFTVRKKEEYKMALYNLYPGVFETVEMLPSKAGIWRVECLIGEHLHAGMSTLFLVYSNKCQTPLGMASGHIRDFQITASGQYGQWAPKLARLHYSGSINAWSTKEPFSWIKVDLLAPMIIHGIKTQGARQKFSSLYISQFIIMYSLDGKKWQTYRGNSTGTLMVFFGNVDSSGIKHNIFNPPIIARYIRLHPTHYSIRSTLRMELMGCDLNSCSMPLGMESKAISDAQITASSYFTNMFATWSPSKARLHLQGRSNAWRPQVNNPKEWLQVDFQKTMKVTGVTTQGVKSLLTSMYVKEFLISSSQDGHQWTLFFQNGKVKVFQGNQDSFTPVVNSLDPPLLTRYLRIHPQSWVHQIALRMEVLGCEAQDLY

[2] = biological target: T1, B-domain deleted factor VIII (FVIII); test: SPR (Biacore 3000), antibody captured by rabbit anti-mouse IgG, FVIII 0-40 nM as analyte, 25 C, 1:1 Langmuir fit
Experimental: (§1) The kinetics of FVIII binding to antibody was determined by surface plasmon resonance using a Biacore 3000 instrument. Each antibody was captured to a level of 70-110 RU in flow cell 2 of a CM5 chip coated with rabbit anti-mouse IgG antibody (GE Healthcare, Uppsala, Sweden) as described by the manufacturer. Kinetic analysis was performed at 25° C. at a flow rate of 30 μl/min in running buffer using flow cell 1 as reference. Serial two-fold dilutions of FVIII from 0 to 40 nM were analyzed. Following 3-min equilibration of the flow cells in running buffer, 150 μl FVIII were injected. The dissociation phase lasted 9 min and regeneration was performed with a 3-min pulse of 10 mM glycine, pH 1.7. The obtained reference-subtracted sensorgrams fitted well to a 1:1 Langmuir binding model which allowed for estimation of association (Kₒₙ) and dissociation (koff) rate constants and the equilibrium dissociation constant (Kd=koff/kₒₙ) using BIAevaluation 4.1 software (GE Healthcare, Uppsala, Sweden).
TABLE 2 Surface plasmon resonance analysis of the kinetics of FVIII binding to select antibodies. The listed antibodies were captured by immobilized rabbit anti-mouse IgG antibody and binding to FVIII were tested in concentrations ranging from 0 to 40 nM. Binding curves fitted well to a 1:1 Langmuir binding isotherm which provided estimates of association (kₒₙ) and dissociation (koff) rate constants. The dissociation constrant Kd was calculated as koff/kₒₙ. Standard errors obtained from the fits are shown.

[3] = biological target: T1, B-domain deleted factor VIII (FVIII); test: SPR (Biacore 3000), antibody captured by rabbit anti-mouse IgG, FVIII as analyte; Kd = koff/kon
Experimental: as §1
TABLE 2 Surface plasmon resonance analysis of the kinetics of FVIII binding to select antibodies. The listed antibodies were captured by immobilized rabbit anti-mouse IgG antibody and binding to FVIII were tested in concentrations ranging from 0 to 40 nM. […] The dissociation constrant Kd was calculated as koff/kₒₙ. […]

Maximal level of thrombin generation, fold-increase compared to FVIII [1]: 1.7 fold | Rate of thrombin generation, fold-increase compared to FVIII [1]: 1.8 fold | koff [2]: 0.000849 s⁻¹ | kon [2]: 244000 M⁻¹ s⁻¹ | Kd [3]: 3.5 nM
B1: anti-FVIII 4F143 (antibody, mouse IgG1, V domains shown)
VH: QIQFVQSGPELKKPGETVKISCKASGYTFTNYGMNWVKQAPGKGLKWMGWINSYTGEPTYADDFKGRFAFSLETSASTAYLQINNLKNEDTATYFCARGASYAMDYWGQGTSVTVSS
VL: DVQITQSPSYLAASPGETITINCRASKSISKYLAWYQEKPVKTNKLLIYSGSTLQSGIPSRFSGSGSGTDFTLTISSLEPEDFAMYYCQQHYEYPLTFGAGTKLELKR
notes: Mouse monoclonal from hybridoma, murine IgG1 heavy chain and kappa light chain; also called Anti-FVIIIa 4F143

koff [2]: 0.00106 s⁻¹ | kon [2]: 190000 M⁻¹ s⁻¹ | Kd [3]: 5.6 nM
B2: anti-FVIII 4F50 (antibody, mouse IgG1, V domains shown)
VH: B1 VH with A69D, Y106H
VL: B1 VL with T20S
notes: Mouse monoclonal, murine IgG1 heavy chain and kappa light chain; also called Anti-FVIIIa 4F50
